According to the DeepSol protein solubility set:

test: soluble on expression in E. coli; label from the status in PepcDB or PDB records

| Sequence | soluble on expression in E. coli |
| --- | --- |
| AESLSGLSLKLVKKEPRQLELTWAGSRPRNPGGNLSYELHVLNQDEEWHQMVLEPRVLLTKLQPDTTYIVRVRTLTPLGPGPFSPDHEFRTSPP | soluble |
| MNYNPEEQFRCTIIRGKAKNMLDNLLPAYANIIDDICPCDKASFVKDFNNRLIEILGEETTKKTLDNHRTEIAGKLFGMFYEDDEVIFPSGRTNKYIEDSDQPAFFKDICFKFQFPNGMDKLDKVIEKVGAKIQIRQFPYILQVLLTADNNNIQLSKDDIAYYVLNSLQVLQGKIKPIEVIEKIIEDRSNDITKKVRHPGKETSYSMQHIREQLNYLELANLIRIDGNLVKLNYREAENINYIAQFWGNKPEFNAYKYDFTSEDDKKSFFKDWQQYYSNVNSHKS | soluble |
| MISNQVLQNTLEGLKEISRTEFCIIDTEGKVLATTFADFSIQPGDIQAFVESQADSQLVKGFQYFKVCDDYQLEYILVAHGDDEDTYMVGKLAAFQIQNLIVAYKERFDKDSFIKNLLLDNLLLVDIYNRAKKLHIDADVRRVVMILELQQEKDHSSMESVKSFFGGKSKDFITAVDEKSIIIVKELEDGEGYAEMDKLAHAILDTLGLNQNEETHIAYGTIVNELKEVSRSYKEARMALDVGKIFFGEKDVIAYSSLGIGRLIYQLPIPLCKMFIKEIFENKSPDDFDEETLVTIDKFFENSLNVSETSRQLYIHRNTLVYRLDKLQKSTGLDLRVFEDAITFKIALMVVRYMKYMETLEY | not soluble |
| MSERIVPSGDVELWSDDFGDPADPALLLVMGGNLSALGWPDEFARRLADGGLHVIRYDHRDTGRSTTRDFAAHPYGFGELAADAVAVLDGWGVDRAHVVGLSMGATITQVIALDHHDRLSSLTMLLGGGLDIDFDANIERVMRGEPTLDGLPGPQQPFLDALALMNQPAEGRAAEVAKRVSKWRILSGTGVPFDDAEYARWEERAIDHAGGVLAEPYAHYSLTLPPPSRAAELREVTVPTLVIQAEHDPIAPAPHGKHLAGLIPTARLAEIPGMGHALPSSVHGPLAEVILAHTRSAA | soluble |
| MSLKILIPTAKEMNTDLPSIEAIPLKPESQTVLDALALYSASQLESFYKVSAEKAAEEFQNIQALKRQTAQHYPALKLFDGLMYRNIKRDKLTEAEQDYLENHVFITSALYGVVPALSPMAPHRLDFLMKLKVAGKTLKSHWKAVYDEALKKEEVIFSLLSSEFETVFSKEIRAKMVTFKFMEDRGGQLKIHSTISKKARGAFLTALIENQVQTVGEARRLNFAGFVYREDLSQPQGLVFVKEVEGHHHHHH | soluble |
| ISRLLKNNLMDDVFNTENESFAQETRLIENEYSINLPTRFYYKKKWNDGWINVVNPFRASMVLGTPGSGKSYAIVNNYIKQQIEKGFAVYIYDYKFPDLSEIAYNHLISYLDGYKVKPKFYMINFDDPRKSHRCNPINPAFMTDISDAYEASYTIMLNLNRSWITKQGDFFVESPIILLASIIWFLKIYQGGKYCTFPHAIEFLNKKYADTFTILTSYPELENYLSPFMDAWESNAQDQLQGQLASAKIPLSRMISPALYWVMTGDDFSLDINNPEEPKILVVGNNPDRQNIYSCALGLYNSRIVKLINKKHQLKSSVIIDELPTIYFRGLDNLIATARSNKVAVCLGFQDFSQLRRDYGDKESKVIENTVGNIFSGQVVSETAKTLSDRFGKVLQKRQSMTINRNDKSTSISTQMDSLIPPSKISNLTQGMFVGAVSDNFDERIEQKIFHAEIMVDNEKVKRETASYKKLPQIIDFRDEDGNDRMQEEIQANYNRVKQEVQQIITDEIERIKNDPNLQNLLKHE | not soluble |
| MEISGEEDKEEAVTLPKEVSKISISDGNKFVYQILNGPNEQCFENFRMDKPVFYKLCDLLQTRGLLRHTNRIKIEAQLAIFLFIIGHNLRTRAVQELFCYSGETISRHFNNVLNAVIAISKDFFQPNSNSDTLENDDPYFKDCVGVVDSFHIPVMVGVDEQGPFRNGNGLLTQNVLAASSFDLRFNYVLAGWEGSASDQQVLNAALTRRNKLQVPQGKYYIVDNKYPNLPGFIAPYHGVSTNSREEAKEMFNERHKLLHRAIHRTFGALKERFPILLSAPPYPLQTQVKLVIAACALHNYVRLEKPDDLVFRMFEEETLAEAGEDREVALEEEQVEIVGQEHGFRPEEVEDSLRLRDEIASELWNHYVQNMSTF | soluble |
| MDQNTTPAPGLRETKKRETRQLISDHATRLFIERGFEHTTIAEIADAARVAKKTVTNYFPRKEDLALDHQDEFVAALAATVTARGAGETPLTALRHAFLAAVAAQDPVAGFAGQAFTRMIADSPTLTACLRGLHDRREEALTAALAGTTDTPPDDITPRTAAALLGGVHRVLFNRIQELTLAGRATPEIAEVLAREAPRAFDLLTPALAEYGRRP | not soluble |
| PYNKNGFKVGMKLEGVDPEHQSVYCVLTVAEVCGYRIKLHFDGYSDCYDFWVNADALDIHPVGWCEKTGHKLHPPKGYKEEEFNWQTYLKTCKAQAAPKSLFENQNITVIPSGF | soluble |
| FQGAMSSSIDISKINSWNKEFQSDLTHQLATTVLKNYNADDALLNKTRLQKQDNRVFNTVVSTDSTPVTNQKSSGRCWLFAATNQLRLNVLSELNLKEFELSQAYLFFYDKLEKANYFLDQIVSSADQDIDSRLVQYLLAAPTEDGGQYSMFLNLVKKYGLIPKDLYGDLPYSTTASRKWNSLLTTKLREFAETLRTALKERSADDSIIVTLREQMQREIFRLMSLFMDIPPVQPNEQFTWEYVDKDKKIHTIKSTPLEFASKYAKLDPSTPVSLINDPRHPYGKLIKIDRLGNVLGGDAVIYLNVDNETLSKLVVKRLQNNKAVFFGSHTPKFMDKKTGVMDIELWNYPAIGYNLPQQKASRIRYHESLMTHAMLITGCHVDETSKLPLRYRVEVSWGKDSGKDGLYVMTQKYFEEYCFQIVVDINELPKELASKFTSGKEEPIVLPIWDPMGALA | soluble |
| MNELIGFVNGNSVRQKVLSLLASKGEMEGKRISKTLRVVYPTIAKTLEELEEKNLISKKEEIYFLTETGTKIEKMVQQI | not soluble |
| MGSDKIHHHHHHMRETIREIQKVAYWLAIKGLSEANAGNISVRLDERPEGYEVKSVNEYGFDYDGPEMYLLITATGSRMREVYEDDSKICLLHVLPGKHYEILHGNGKPTSEFPTHLMIHAKFKEMNPEKKAIVHTHPLNLLTLMNLEEFQELLPKMMKIHPEVLIFFPQGISVVEFEKPGSVELGLKTVEKSEGKDAVLWDKHGVVAFGKDVAEAYDRVEILEKAAEILLRVLSLGRNPTGVPEGWL | not soluble |
| MGSANGKTLGEVWKRELNLLDKRQFELYKRTDIVEVDRDTARRHLAEGKVDTGVAVSRGTAKLRWFHERGYVKLEGRVIDLGCGRGGWCYYAAAQKEVSGVKGFTLGRDGHEKPMNVQSLGWNIITFKDKTDIHRLEPVKCDTLLCDIGESSSSSVTEGERTVRVLDTVEKWLACGVDNFCVKVLAPYMPDVLEKLELLQRRFGGTVIRNPLSRNSTHEMYYVSGARSNVTFTVNQTSRLLMRRMRRPTGKVTLEADVILPIGTRSVGSSSHHHHHH | soluble |
| MSLLHKDYHHFALTALEERKLAQLPPYSFLSLFRAEANHTAQVEDFLRQVRETLRCNPWFDSECMVLGPTPAPLAKRAGKFRWQLLLQTPNRTLMQKILQSARPALQQLPLASKVRWSIDIDPQDLSEGHHHHHH | soluble |
| MGSDKIHHHHHHVEPRSLRSRRSSSYYCGELIKADFSQRREFVMRNSLRRWKNEKLAQKLKKVFESKSVRVIYLPDIEMVVEEVHKLIPDGATVSSGGSVTLQETGVMDLLRSGKYEFLDRDSVSEDKERRKIMIKAFESDYYLCSANAITENGEILLLDGSGNRAAAVTFGPEKVIFVAGINKVVEDLDAGIKRIKSIAPMNAKRLNLHTPCATTGFCSDCSSEERICEMYSIIIDSRRRPWRYTIVLIGEELGL | not soluble |
| MGSDKIHHHHHHMSTDNDTETDDSGGHCSTPDSDGEVAEDIAIVAFERKRDTAAEIVAGIGDRYDSIDILDYHGDVFAEHWGEYDCFVGLMASGIAMRKTAGLLDDKWEDPAVVVVDEALTWAIPLTGGHHGANQVADDLASMGAVPAMTTASEAAGKQGVEERAKALDTHVVNGDSTVATNLAVLDENLGPVARLDGPQAVVVGDDVTVLKRNSDDGVVLGTGSVSGADEQQFRDAWAASLAATDYDIDDVEFVATGTRKADEEGLLAAAEALGLGVVAFEKETLEAHEGPTPSRSKELIGWPGIAEASAIAGGRDNELLAEKERYDEAVTVAVGK | not soluble |
| MVSFKAGINLGGWISQYQVFSKEHFDTFITEKDIETIAEAGFDHVRLPFDYPIIESDDNVGEYKEDGLSYIDRCLEWCKKYNLGLVLDMHHAPGYRFQDFKTSTLFEDPNQQKRFVDIWRFLAKRYINEREHIAFELLNEVVEPDSTRWNKLMLECIKAIREIDSTMWLYIGGNNYNSPDELKNLADIDDDYIVYNFHFYNPFFFTHQKAHWSESAMAYNRTVKYPGQYEGIEEFVKNNPKYSFMMELNNLKLNKELLRKDLKPAIEFREKKKCKLYCGEFGVIAIADLESRIKWHEDYISLLEEYDIGGAVWNYKKMDFEIYNEDRKPVSQELVNILARRKT | soluble |
| MELISIIVPVYNGEIYIGRCLDSILEQTYQNLEIIIIDDGSSDRTGDICEKYFLEDRRIKYFYQENRGQSVARNNGVLRCTGDWIAFLDSDDVYLPYSIEVMYNIQKATNADIVLTSIGNFNNTYNTSINSQYLKEIKLYTLEVALEEMYYGKTYGVSPLAKLYPRSNLLSNPYPEGKIHEDMDTTFKLISCASKIAVCDIVTAVVYFSDNSTTRTKFNERMLYFFEAIQNNIVFINLNFPHNTSLISAVIYNEVFGGIDICGKMIDFKLYDTVDYYRKKYRKYFKTILFNNRISVKEKVKYILFISSIRYFTIVRKIYNLRLSRNGLEHHHHHH | not soluble |
| MNGPIIMTREERMKIVHEIKERILDKYGDDVKAIGVYGSLGRQTDGPYSDIEMMCVMSTEEAEFSHEWTTGEWKVEVNFYSEEILLDYASQVESDWPLTHGQFFSILPIYDSGGYLEKVYQTAKSVEAQTFHDAICALIVEELFEYAGKWRNIRVQGPTTFLPSLTVQVAMAGAMLIGLHHRICYTTSASVLTEAVKQSDLPSGYDHLCQFVMSGQLSDSEKLLESLENFWNGIQEWTERHGYIVDVSKRIPF | soluble |
| MIKSYKIRGTSLTVNRSDSYPDACNWTADSFGMLFYDPEYDLSTESLSITLDAGNDWVPEGGLVYESLPVKVTYENPEMMDYGTDWFNQGYSALGWNGEEYAYLGTDRGIVNILLEEDEKILYPNEEYDLKEGYTLKVTDLASDKACLTLSRNKLPVYSSIISPGKSADLGTHTFLYKKELNGVEVPLFSVYVDSVIQGDELSAVNLKHLLHFSDSPLELNYGKEYGELTIVETYPKLRLENKHVVWSGSDINVTEDIWIGRFEKKTAGNLFVTFYPYMNKVENVRSILPSVSSWSIPAMSIEEYLIGVLEHHHHHH | not soluble |
| SPSTNRKYPPLPVDKLEEEINRRMADDNKLFREEFNALPACPIQATCEAASKEENKEKNRYVNILPYDHSRVHLTPVEGVPDSDYINASFINGYQEKNKFIAAQGPKEETVNDFWRMIWEQNTATIVMVTNLKERKECKCAQYWPDQGCWTYGNVRVSVEDVTVLVDYTVRKFCIQQVGDVTNRKPQRLITQFHFTSWPDFGVPFTPIGMLKFLKKVKACNPQYAGAIVVHCSAGVGRTGTFVVIDAMLDMMHSERKVDVYGFVSRIRAQRCQMVQTDMQYVFIYQALLEHYLYGDTELEVT | soluble |
| MGSDKIHHHHHHMTSSVASDLSSFVRFADIPPEFQPTDAHPIRVRSRLMPSGRRIARHTHAWAQVAYASRGVLRVATTGTTWMVPPSRAIWVPPHVTHEVVAVEDAFLRTLYITESTVPAGLDTPRVVEVSDLLREVIAALDTPGISATREQLLGALALDELTRSEPLPLSVPMPNEKRLRALCEAVIADPTHGESLEQWASSVGASTRTIARLFRQELGVSFSQWRQQAILARAIPLLSQGRPLSHVALELGYQSQSAFSAMFRRAFGESPRAFIERGSEHRVEDGERGDMETDNETAAQDRADVADVADVADDAGDAGDAGDTGDTGDTGDVGDVGDADDSEL | not soluble |
